Experimental data from patent publication US20050244902A1.

Biological target: antiserum 98192
Test: RIA, displacement of 125I-proBNP 1-10Tyr tracer from antiserum 98192

Row | ratio of median inhibitory dose (ID50) | Binder
1 | 0.001 | PLGSPGSASDLETSGLQEQR [N-terminal truncated fragment of human proBNP 1-21 with the N-terminal histidine removed]
2 | 0.0006 | LGSPGSASDLETSGLQEQR
